Reference: IntAct's records for PubMed 22759634

B1: DNA annealing helicase and endonuclease ZRANB3 (Homo sapiens), Q5FWF4 (parent)
chain: MPRVHNIKKSLTPHISCVTNESDNLLDFLPDRLRAKLLPFQKDGIIFALKRNGRCMVADEMGLGKTIQAIGITYFYKEEWPLLIVVPSSLRYPWTEEIEKWIPELSPEEINVIQNKTDVRRMSTSKVTVLGYGLLTADAKTLIDALNNQNFKVVIVDESHYMKSRNATRSRILLPIVQKARRAILLTGTPALGRPEELFMQIEALFPQKFGRWTDYAKRYCNAHIRYFGKRPQWDCRGASNLNELHQLLSDIMIRRLKTEVLTQLPPKVRQRIPFDLPSAAAKELNTSFEEWEKIMRTPNSGAMETVMGLITRMFKQTAIAKAGAVKDYIKMMLQNDSLKFLVFAHHLSMLQACTEAVIENKTRYIRIDGSVSSSERIHLVNQFQKDPDTRVAILSIQAAGQGLTFTAASHVVFAELYWDPGHIKQAEDRAHRIGQCSSVNIHYLIANGTLDTLMWGMLNRKAQVTGSTLNGRKEKIQAEEGDKEKWDFLQFAEAWTPNDSSEELRKEALFTHFEKEKQHDIRSFFVPQPKKRQLMTSCDESKRFREENTVVSSDPTKTAARDIIDYESDVEPETKRLKLAASEDHCSPSEETPSQSKQIRTPLVESVQEAKAQLTTPAFPVEGWQCSLCTYINNSELPYCEMCETPQGSAVMQIDSLNHIQDKNEKDDSQKDTSKKVQTISDCEKQALAQSEPGQLADSKEETPKIEKEDGLTSQPGNEQWKSSDTLPVYDTLMFCASRNTDRIHIYTKDGKQMSCNFIPLDIKLDLWEDLPASFQLKQYRSLILRFVREWSSLTAMKQRIIRKSGQLFCSPILALEEITKQQTKQNCTKRYITKEDVAVASMDKVKNVGGHVRLITKESRPRDPFTKKLLEDGACVPFLNPYTVQADLTVKPSTSKGYLQAVDNEGNPLCLRCQQPTCQTKQACKANSWDSRFCSLKCQEEFWIRSNNSYLRAKVFETEHGVCQLCNVNAQELFLRLRDAPKSQRKNLLYATWTSKLPLEQLNEMIRNPGEGHFWQVDHIKPVYGGGGQCSLDNLQTLCTVCHKERTARQAKERSQVRRQSLASKHGSDITRFLVKK

Variants of: B1
Details: with pcna_human PCNA

**Q.** Which “effect of a mutation on the interaction” value does the source give for Q519A;F525A;F526A;Y632A here?
**A.** decreasing interaction strength

Variants of: B1
Details: with pcna_human PCNA
Remark: another data set of the same source

**Q.** For Q519A;F525A;F526A, which “effect of a mutation on the interaction” value is on record?
**A.** disrupting interaction strength
